The record followed here is the RNAGym collection of RNA variant scans (doi:10.1093/nar/gkz1192).

To fix the notation:
B1: CPEB3 Ribozyme (parent)
chain: UAACAGGGGGCCACAGCAGAAGCGUUCACGUCGCAGCCCCUGUCAGAUUCUGGUGAAUCUGCGAAUUCUGCUGUAUAUCUC

This series covers variants of B1. Description: self-cleavage, relative activity (ratio to wild type); higher = more cleavage; in vitro, sequencing. An outline of the steps:
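Barcoded CPEB3 ribozyme mutants, produced by rounds of error-prone PCR, self-cleaved while being transcribed with T7 RNA polymerase for 5 hours at 37°C and during a subsequent 15 min DNase I step before EDTA was added. Sequencing of template-switched cDNA on Illumina gave cleaved and total reads, and DNA sequencing assigned barcodes to variants. Each variant's relative activity is its cleaved/total read fraction divided by the unmutated ribozyme's fraction, averaged across three batches. A variant needed a minimum of 5 reads.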
Take UAACAGGGGGCCUCAGCAGAAGCGUUCACAUCGCAGCCCCUGUCAGAUUCUGGUGAAUCUGCGAAUUCUGCUGUAUAUCUC: the self-cleavage was determined as 0.24.

With UAACAGGGGGCCACAGCAGAAGCGUUCGCGUCGCAGCACCUGUCAGAUUCUGGUGAAUCUGCGAAUUCUGCUGUAUAUCUC, the self-cleavage turned out to be 0.29.

In the case of UAACAGGGGGCCACAGCAGAAGCGUUCACGUCGCAGCCCCUGUCAGAUUCUGGCGAAUCUGCGAAUUCUGCUGCAUAUCUC, the self-cleavage amounted to 1.21.

As to UAACAGGGGGCCACAGCAUAAGCGUUCACGUCGCAGCCCCUGUCAGAUCCUGGUGAAUCUGCGAAUUCUGCUGUAUAUCUC, the self-cleavage turned out to be 0.15.

With UAACAGGGGGCCACAGCGGAAGCGUUCACGUCGCAGCCCCUGUCAGAUUCUGGUGAGUCUGCGAAUUCUGCUGUAUAUCUC, the self-cleavage was found to be 0.55.

Regarding UAACAGGGGGCAACAGCAGAAGCGUUCACGUCGCAGCCCCUGUCAGAUUCUGGUGAAUCUGCGAGUUCUGCUGUAUAUCUC, the self-cleavage came out at 0.44.

As for UAACUGGGGGCCACAGCAGAAGCGUUCAAGUCGCAGCCCCUGUCAGAUUCUGGUGAAUCUGCGAAUUCUGCUGUAUAUCUC, the self-cleavage was 0.36.

For the variant UAACAUGGGGCCACAGCAGAAGCGUACACGUCGCAGCCCCUGUCAGAUUCUGGUGAAUCUGCGAAUUCUGCUGUAUAUCUC, the self-cleavage was found to be 0.13.

For the variant UAACAGGGGGCCUCAGCAGAAGCGUUCACGUAGCAGCCCCUGUCAGAUUCUGGUGAAUCUGCGAAUUCUGCUGUAUAUCUC, the self-cleavage came out at 0.2.

UAACAGGGGGCCACAGCAGAAGCGUUCACGCCGCAGCCCCUGUCAGAUUCUGGUGAAUCUGCGAACUCUGCUGUAUAUCUC: the self-cleavage is 0.27.

Turning to UAACAGGGCGCCACAGCAGAAGCGUUCACGACGCAGCCCCUGUCAGAUUCUGGUGAAUCUGCGAAUUCUGCUGUAUAUCUC, the self-cleavage is 0.19.

With UAACAGGGGGCCACAGCAGAAGCGUUAACGUCGCAGCCCCUGUCAGAUUCUGGUGAGUCUGCGAAUUCUGCUGUAUAUCUC, the self-cleavage turned out to be 0.08.

As to UAACAGGGGGCCACAGCAGAAGCGUUCACGUCGCAGCCCAUGUCAGAAUCUGGUGAAUCUGCGAAUUCUGCUGUAUAUCUC, the self-cleavage amounted to 0.15.

For UAACAGGGGGCCACAGCAGAAGCGUUGACGUCGCAGCCCCUGUCAGAUUCUGGUGAAUCUGCGAAUUCUGCCGUAUAUCUC, the self-cleavage was 0.11.

On to UAACAGGGGGCCACAGCAGAAGCGUUAACGUCGCAGCCCCUGUCAGACUCUGGUGAAUCUGCGAAUUCUGCUGUAUAUCUC, for which the self-cleavage is 0.11.

As to UAACAGGGGGCCACAGCAGUAGCGUUCACGUCGCAGCCCCUGUCAGAUUCUGGUGAAUCUGCGAAUUCUGCUGUAUAACUC, the self-cleavage came to 0.43.

On to UAACAGGGGGCCACAGCAGAAGCGUUCACGUCGCAGCCCCUAUCAGAUUCUGGUGAAUCUGCGAAUUCUGCUGUACAUCUC, for which the self-cleavage was found to be 0.41.

Regarding UAACAGGGGGACACAGCAGAAGCGUUCACGUCGCAGCCCCUGUCAGAUUCUGGGGAAUCUGCGAAUUCUGCUGUAUAUCUC, the self-cleavage amounted to 0.21.

In the case of UAACAGGGGGCCACAGCAGAAGCGUUCACGUCGCAGCCCCUGCCAGAUUCUGAUGAAUCUGCGAAUUCUGCUGUAUAUCUC, the self-cleavage stood at 0.87.

For the variant UAACAGGGGGCCACAGGAGAAGCGUUCACGUCGCAGCCCCUGUCAGAUUCUGGUGAAUCUGCGAAUUCUGCUGUAUAUCUC, the self-cleavage came out at 0.35.

Regarding UAACAGAGGGCCACAGCAGAAGCGUUCACGUCGCAGCCCCUGUCAGAUUCUGGUGAAUCUGCGAAUUCUCCUGUAUAUCUC, the self-cleavage is 0.06.

Take UGACAGGGGGCCACAGCAGAAGCGUUCACGUCGCAGCCCCUGUCAGAUUCUGGUGAAUCUGCGAAUUCUACUGUAUAUCUC: the self-cleavage is 0.16.

On to UAACAGGGGGCCACAGCAGAAGCGUUCACGUCGCAGCCCCUGUCAGAUUCUGGUGACUCUGCGUAUUCUGCUGUAUAUCUC, for which the self-cleavage was determined as 0.44.

For UAACAGGAGGCCACAGCAGAAGCGUUCACGUCUCAGCCCCUGUCAGAUUCUGGUGAAUCUGCGAAUUCUGCUGUAUAUCUC, the self-cleavage turned out to be 0.07.

Take UAACAGGGGGCCACAGCAGAAGCGUUCACGUCGCAGCCCCUGUCAGACUCGGGUGAAUCUGCGAAUUCUGCUGUAUAUCUC: the self-cleavage turned out to be 0.33.

As for UAACAGGGAGCCACAGCAGAAGCGUUCACGUCGCUGCCCCUGUCAGAUUCUGGUGAAUCUGCGAAUUCUGCUGUAUAUCUC, the self-cleavage is 0.18.

UAACAGGGGGCCUCAGCAGAAGCGUUCACGUCGCAGCCCCUGUCAGAUUCUGGUGAUUCUGCGAAUUCUGCUGUAUAUCUC: the self-cleavage amounted to 1.04.

With UAACAGGGGGCCACAGCAGAAGCGUUCACGUCGCAGCUCCUGUCAGAUUCUGGUGAAUCUGCGAAUUCUGCUGUAUAUCGC, the self-cleavage was found to be 1.03.

In the case of UAACAGGGGGCCACAGCAGAAGCGUUAACGUCGCAGCCCCUGUCAGAUUCUGGUGAAUCUGCGUAUUCUGCUGUAUAUCUC, the self-cleavage came out at 0.2.

As for UAACAGGGGGCCACAGCAGAAGCGUUCACGUCGCAGCCCCUGUCAGAUUCUCGUGAAUCUGCGAAUUCUGCUGAAUAUCUC, the self-cleavage stood at 1.28.

UAACAGGGGGCCACAGCAGAAGCGUUCGCGUCGCAGCCACUGUCAGAUUCUGGUGAAUCUGCGAAUUCUGCUGUAUAUCUC: the self-cleavage amounted to 0.06.

Turning to UAACAGGGGGCCACAGCAGAAGCGUUCACGUCGCAGCCCCUGUCAGAUUCAGGUGAAUCUGCGAAUCCUGCUGUAUAUCUC, the self-cleavage stood at 0.4.

Regarding UAACAGGGGGCCACAGCAGAAGCGUUCACGUCGCAGCCCCUAUCAGAUUCUGGUGAAUCUGCGAAUUCUGCUGUAUAUCUG, the self-cleavage was found to be 0.35.

Take UAACAGGGGGCCACAGCAGACGCGUUCACGUCGCAGCCCCUGUCAGAUUCUGGUGAAUCUGCGAAUUCUGCUGUAAAUCUC: the self-cleavage is 0.1.
